From the supplement of paper PMC10065799, “High-throughput profiling of sequence recognition by tyrosine kinases and SH2 domains using bacterial peptide display” (eLife, 2023)
Blank lines part the entries; values can stand above or below the sequence they belong to.

Columns and labels:
[1] = molecular target: c-Src SH2; assay: SH2 binding enrichment of the phosphorylated peptide, bacterial display (enrichment ratio); higher = better substrate or ligand; peptides without Tyr show the background
[2] = molecular target: SHP2-C SH2; assay: as above
[3] = molecular target: Grb2 SH2 (UniProt P62993); assay: as above
[4] = molecular target: FGFR3 (UniProt P22607); assay: phosphorylation enrichment, bacterial display (enrichment ratio); higher = better substrate or ligand; peptides without Tyr show the background
[5] = molecular target: FGFR1 (UniProt P11362); assay: as above
Chain of FGFR1 (P11362 whole entry, looked up): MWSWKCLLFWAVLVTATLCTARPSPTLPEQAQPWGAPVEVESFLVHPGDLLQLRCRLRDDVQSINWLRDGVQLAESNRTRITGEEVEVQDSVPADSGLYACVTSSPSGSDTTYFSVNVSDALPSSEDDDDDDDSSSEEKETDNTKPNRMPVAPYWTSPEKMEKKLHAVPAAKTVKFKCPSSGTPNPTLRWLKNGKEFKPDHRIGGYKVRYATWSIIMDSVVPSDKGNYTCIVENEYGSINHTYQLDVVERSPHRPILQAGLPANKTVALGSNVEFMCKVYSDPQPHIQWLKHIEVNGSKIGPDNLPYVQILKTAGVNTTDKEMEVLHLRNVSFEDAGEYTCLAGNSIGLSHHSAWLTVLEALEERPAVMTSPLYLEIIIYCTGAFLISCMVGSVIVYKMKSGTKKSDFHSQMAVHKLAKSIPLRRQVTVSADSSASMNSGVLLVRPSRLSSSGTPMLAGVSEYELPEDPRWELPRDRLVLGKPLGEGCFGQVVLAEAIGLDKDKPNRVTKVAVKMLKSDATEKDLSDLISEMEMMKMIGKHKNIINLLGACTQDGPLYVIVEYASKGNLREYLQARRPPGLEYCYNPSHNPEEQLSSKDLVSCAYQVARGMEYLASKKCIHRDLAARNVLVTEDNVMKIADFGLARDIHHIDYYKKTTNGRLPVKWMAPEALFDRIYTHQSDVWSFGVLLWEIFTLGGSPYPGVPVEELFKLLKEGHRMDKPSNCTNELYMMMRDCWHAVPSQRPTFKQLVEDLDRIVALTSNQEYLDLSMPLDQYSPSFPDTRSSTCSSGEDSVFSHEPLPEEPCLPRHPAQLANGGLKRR

[6] = system: AncSZ; assay: as above
[7] = molecular target: Jak2 (UniProt O60674); assay: as above
[8] = molecular target: MERTK (UniProt Q12866); assay: as above
Chain of MERTK (Q12866 whole entry, looked up): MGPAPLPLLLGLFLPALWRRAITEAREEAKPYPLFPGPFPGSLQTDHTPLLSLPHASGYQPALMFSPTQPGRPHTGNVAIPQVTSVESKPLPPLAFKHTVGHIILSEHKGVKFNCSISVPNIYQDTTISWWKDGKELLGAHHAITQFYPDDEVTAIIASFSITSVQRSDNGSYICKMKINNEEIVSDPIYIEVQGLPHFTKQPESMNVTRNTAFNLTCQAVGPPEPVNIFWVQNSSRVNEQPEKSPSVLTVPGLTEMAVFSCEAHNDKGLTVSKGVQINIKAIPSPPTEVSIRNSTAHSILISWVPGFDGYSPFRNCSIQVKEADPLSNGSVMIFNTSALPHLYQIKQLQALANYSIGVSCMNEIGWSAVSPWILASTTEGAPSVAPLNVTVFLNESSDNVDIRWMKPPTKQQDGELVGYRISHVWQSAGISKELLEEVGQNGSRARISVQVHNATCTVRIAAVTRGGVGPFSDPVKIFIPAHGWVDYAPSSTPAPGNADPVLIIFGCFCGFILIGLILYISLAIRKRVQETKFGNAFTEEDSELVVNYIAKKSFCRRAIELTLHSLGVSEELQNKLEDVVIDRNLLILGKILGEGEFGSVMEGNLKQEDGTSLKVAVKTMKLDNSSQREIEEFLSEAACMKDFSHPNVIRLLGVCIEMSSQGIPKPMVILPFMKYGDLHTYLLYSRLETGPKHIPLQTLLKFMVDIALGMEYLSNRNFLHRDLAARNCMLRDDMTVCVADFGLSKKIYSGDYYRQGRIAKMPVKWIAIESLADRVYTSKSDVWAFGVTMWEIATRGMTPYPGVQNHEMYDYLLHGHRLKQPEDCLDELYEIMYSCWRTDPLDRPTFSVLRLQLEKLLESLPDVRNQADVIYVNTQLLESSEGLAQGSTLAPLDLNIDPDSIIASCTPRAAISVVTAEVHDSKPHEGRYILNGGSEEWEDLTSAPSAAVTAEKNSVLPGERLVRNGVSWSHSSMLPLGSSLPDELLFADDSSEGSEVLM

[9] = molecular target: Hck (UniProt P08631); assay: as above
Chain of Hck (P08631 whole entry, looked up): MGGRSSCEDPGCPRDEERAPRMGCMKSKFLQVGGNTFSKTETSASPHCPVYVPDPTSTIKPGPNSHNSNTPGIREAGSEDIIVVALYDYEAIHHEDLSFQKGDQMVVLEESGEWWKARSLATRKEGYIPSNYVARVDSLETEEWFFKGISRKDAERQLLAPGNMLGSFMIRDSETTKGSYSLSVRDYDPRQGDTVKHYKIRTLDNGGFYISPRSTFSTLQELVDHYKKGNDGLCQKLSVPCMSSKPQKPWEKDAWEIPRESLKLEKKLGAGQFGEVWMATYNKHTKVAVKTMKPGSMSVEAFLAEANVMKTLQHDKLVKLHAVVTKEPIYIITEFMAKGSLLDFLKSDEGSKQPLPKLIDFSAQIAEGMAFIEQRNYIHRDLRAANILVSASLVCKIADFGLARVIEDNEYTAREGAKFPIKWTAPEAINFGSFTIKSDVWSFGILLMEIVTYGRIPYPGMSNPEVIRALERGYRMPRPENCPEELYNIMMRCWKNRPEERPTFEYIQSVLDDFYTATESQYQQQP

[10] = system: Fer (mouse); assay: as above
[11] = molecular target: Fyn (UniProt P06241); assay: as above
Chain of Fyn (P06241 whole entry, looked up): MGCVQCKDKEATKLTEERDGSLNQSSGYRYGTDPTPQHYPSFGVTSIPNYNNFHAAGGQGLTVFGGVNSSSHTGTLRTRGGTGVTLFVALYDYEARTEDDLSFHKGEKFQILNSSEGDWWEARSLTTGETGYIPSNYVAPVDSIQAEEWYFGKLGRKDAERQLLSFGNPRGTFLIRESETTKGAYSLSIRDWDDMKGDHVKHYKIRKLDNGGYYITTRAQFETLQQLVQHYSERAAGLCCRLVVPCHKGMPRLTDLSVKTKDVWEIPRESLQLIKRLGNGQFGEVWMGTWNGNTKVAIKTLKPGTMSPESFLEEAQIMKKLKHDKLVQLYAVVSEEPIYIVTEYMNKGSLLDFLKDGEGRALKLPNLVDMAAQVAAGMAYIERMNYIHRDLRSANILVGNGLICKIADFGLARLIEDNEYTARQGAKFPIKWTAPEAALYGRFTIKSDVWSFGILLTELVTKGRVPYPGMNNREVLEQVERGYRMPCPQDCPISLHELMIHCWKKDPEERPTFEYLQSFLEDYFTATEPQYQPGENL

[12] = system: c-Src; assay: as above
[13] = system: c-Abl (mouse); assay: as above
[14] = molecular target: EPHB1 (UniProt P54762); assay: as above
Chain of EPHB1 (P54762 whole entry, looked up): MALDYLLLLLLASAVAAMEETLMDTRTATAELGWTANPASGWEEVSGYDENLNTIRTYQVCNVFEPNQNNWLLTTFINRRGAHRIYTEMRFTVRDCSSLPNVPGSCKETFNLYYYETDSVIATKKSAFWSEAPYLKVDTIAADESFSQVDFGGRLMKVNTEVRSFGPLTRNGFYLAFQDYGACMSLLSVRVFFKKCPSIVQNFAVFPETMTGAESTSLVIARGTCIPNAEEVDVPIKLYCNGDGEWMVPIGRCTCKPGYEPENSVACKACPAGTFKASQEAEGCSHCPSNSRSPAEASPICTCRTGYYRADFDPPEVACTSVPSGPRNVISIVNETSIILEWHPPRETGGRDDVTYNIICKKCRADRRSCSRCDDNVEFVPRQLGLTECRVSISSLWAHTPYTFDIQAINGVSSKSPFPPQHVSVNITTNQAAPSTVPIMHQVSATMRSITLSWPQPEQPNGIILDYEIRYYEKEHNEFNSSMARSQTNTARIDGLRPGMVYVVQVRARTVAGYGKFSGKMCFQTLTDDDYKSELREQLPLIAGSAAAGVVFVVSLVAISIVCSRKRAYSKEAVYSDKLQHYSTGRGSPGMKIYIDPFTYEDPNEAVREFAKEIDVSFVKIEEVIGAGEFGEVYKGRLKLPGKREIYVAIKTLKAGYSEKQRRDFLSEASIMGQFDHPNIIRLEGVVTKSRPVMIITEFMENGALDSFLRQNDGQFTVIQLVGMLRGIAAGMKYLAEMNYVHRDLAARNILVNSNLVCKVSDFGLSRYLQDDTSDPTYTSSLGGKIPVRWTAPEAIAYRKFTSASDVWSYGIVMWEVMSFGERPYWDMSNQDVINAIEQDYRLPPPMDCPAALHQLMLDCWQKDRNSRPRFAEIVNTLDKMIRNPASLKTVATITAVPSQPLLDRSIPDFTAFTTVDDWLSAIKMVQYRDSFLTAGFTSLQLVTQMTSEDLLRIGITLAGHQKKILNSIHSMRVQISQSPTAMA

[15] = molecular target: Fes (UniProt P07332); assay: as above
[16] = molecular target: EPHB2 (UniProt P29323); assay: as above
Chain of EPHB2 (P29323 whole entry, looked up, the tested form may be a part): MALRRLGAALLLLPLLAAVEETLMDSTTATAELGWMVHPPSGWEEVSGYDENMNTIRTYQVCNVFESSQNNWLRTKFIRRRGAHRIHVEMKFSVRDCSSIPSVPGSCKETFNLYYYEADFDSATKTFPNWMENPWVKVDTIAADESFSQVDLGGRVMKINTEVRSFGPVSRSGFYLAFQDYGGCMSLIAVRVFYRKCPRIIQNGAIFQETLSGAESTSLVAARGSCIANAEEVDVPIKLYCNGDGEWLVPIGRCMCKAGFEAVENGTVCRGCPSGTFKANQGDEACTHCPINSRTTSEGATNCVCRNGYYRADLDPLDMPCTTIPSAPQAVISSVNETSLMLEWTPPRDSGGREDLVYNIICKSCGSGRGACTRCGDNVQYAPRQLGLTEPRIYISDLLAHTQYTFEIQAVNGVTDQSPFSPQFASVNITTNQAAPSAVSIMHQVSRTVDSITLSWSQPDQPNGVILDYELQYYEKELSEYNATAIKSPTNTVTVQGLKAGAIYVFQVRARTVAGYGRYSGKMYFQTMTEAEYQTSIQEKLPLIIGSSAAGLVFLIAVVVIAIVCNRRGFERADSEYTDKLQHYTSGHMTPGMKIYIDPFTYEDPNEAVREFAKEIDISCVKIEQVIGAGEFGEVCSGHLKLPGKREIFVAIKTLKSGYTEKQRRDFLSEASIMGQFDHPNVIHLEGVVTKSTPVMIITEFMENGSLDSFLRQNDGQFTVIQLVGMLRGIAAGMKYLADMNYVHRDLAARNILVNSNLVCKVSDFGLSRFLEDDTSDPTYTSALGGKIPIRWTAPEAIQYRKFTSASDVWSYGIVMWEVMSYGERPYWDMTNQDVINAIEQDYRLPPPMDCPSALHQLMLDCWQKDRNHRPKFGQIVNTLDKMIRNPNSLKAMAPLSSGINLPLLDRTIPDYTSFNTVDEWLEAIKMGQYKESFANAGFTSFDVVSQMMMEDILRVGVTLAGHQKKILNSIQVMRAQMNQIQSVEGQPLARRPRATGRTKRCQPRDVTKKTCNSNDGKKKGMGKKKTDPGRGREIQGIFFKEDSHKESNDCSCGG
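For SH2 binding enrichment of the phosphorylated peptide, bacterial display in this document: peptide library displayed on the E. coli surface as eCPX fusions, selected cells deep-sequenced, score is each peptide's frequency after selection divided by its frequency in the input.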
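For phosphorylation enrichment, bacterial display in this document: 11-residue human phosphosite peptides and single-mutation variants displayed on the E. coli surface, counted by deep sequencing, each peptide's frequency after selection divided by its frequency in the unselected input library; frequency after pTyr selection over input frequency; kinase dosed for 20-30% of maximal phosphorylation in three min.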

Sequence: PEYVVYKPQME [CCRL2_Y170_F167Y]
- SH2 binding enrichment [1]: 0.439
- SH2 binding enrichment [2]: 1.05
- SH2 binding enrichment [3]: 0.913
- phosphorylation enrichment [4]: 6.08
- phosphorylation enrichment [5]: 8.3
- phosphorylation enrichment [6]: 6.34
- phosphorylation enrichment [7]: 5.75
- phosphorylation enrichment [8]: 1.14
- phosphorylation enrichment [9]: 6.69
- phosphorylation enrichment [10]: 1.09
- phosphorylation enrichment [11]: 9.13
- phosphorylation enrichment [12]: 9.4
- phosphorylation enrichment [13]: 9.5
- phosphorylation enrichment [14]: 2.97
- phosphorylation enrichment [15]: 1.29
- phosphorylation enrichment [16]: 7.28

Sequence: VNCHQYDGLVG [ATP2A2_Y407_E412G]
- SH2 binding enrichment [1]: 11.1
- SH2 binding enrichment [2]: 0.686
- SH2 binding enrichment [3]: 0.785
- phosphorylation enrichment [4]: 0.673
- phosphorylation enrichment [5]: 0.559
- phosphorylation enrichment [6]: 0.931
- phosphorylation enrichment [7]: 0.736
- phosphorylation enrichment [8]: 0.451
- phosphorylation enrichment [9]: 0.502
- phosphorylation enrichment [10]: 0.518
- phosphorylation enrichment [11]: 0.48
- phosphorylation enrichment [12]: 0.559
- phosphorylation enrichment [13]: 0.684
- phosphorylation enrichment [14]: 0.433
- phosphorylation enrichment [15]: 0.847
- phosphorylation enrichment [16]: 0.546

Sequence: KLPDAYERFIL [G6PD_Y437_L440F]
- SH2 binding enrichment [1]: 1.1
- SH2 binding enrichment [2]: 0.801
- SH2 binding enrichment [3]: 0.933
- phosphorylation enrichment [4]: 0.661
- phosphorylation enrichment [5]: 0.476
- phosphorylation enrichment [6]: 0.985
- phosphorylation enrichment [7]: 0.892
- phosphorylation enrichment [8]: 0.538
- phosphorylation enrichment [9]: 0.569
- phosphorylation enrichment [10]: 1.22
- phosphorylation enrichment [11]: 0.578
- phosphorylation enrichment [12]: 0.713
- phosphorylation enrichment [13]: 0.745
- phosphorylation enrichment [14]: 0.568
- phosphorylation enrichment [15]: 1.06
- phosphorylation enrichment [16]: 0.562

Sequence: YPSLPYSPVSS [CAMKK2_Y128_C123Y]
- SH2 binding enrichment [1]: 0.668
- SH2 binding enrichment [2]: 1.01
- SH2 binding enrichment [3]: 0.967
- phosphorylation enrichment [4]: 0.721
- phosphorylation enrichment [5]: 0.873
- phosphorylation enrichment [6]: 0.663
- phosphorylation enrichment [7]: 0.489
- phosphorylation enrichment [8]: 0.514
- phosphorylation enrichment [9]: 0.62
- phosphorylation enrichment [10]: 3.13
- phosphorylation enrichment [11]: 0.458
- phosphorylation enrichment [12]: 0.546
- phosphorylation enrichment [13]: 0.564
- phosphorylation enrichment [14]: 0.436
- phosphorylation enrichment [15]: 0.683
- phosphorylation enrichment [16]: 0.401

Sequence: RPAPQYPHQVP [ADAM12_Y895]
- SH2 binding enrichment [1]: 0.647
- SH2 binding enrichment [2]: 0.687
- SH2 binding enrichment [3]: 1.06
- phosphorylation enrichment [4]: 1.03
- phosphorylation enrichment [5]: 0.608
- phosphorylation enrichment [6]: 1.3
- phosphorylation enrichment [7]: 1.36
- phosphorylation enrichment [8]: 0.718
- phosphorylation enrichment [9]: 0.582
- phosphorylation enrichment [10]: 0.685
- phosphorylation enrichment [11]: 0.715
- phosphorylation enrichment [12]: 0.819
- phosphorylation enrichment [13]: 1.01
- phosphorylation enrichment [14]: 0.572
- phosphorylation enrichment [15]: 1.02
- phosphorylation enrichment [16]: 0.463

Sequence: GETEQYVGGGG [FAT4_Y4980_A4977T]
- SH2 binding enrichment [1]: 0.506
- SH2 binding enrichment [2]: 0.553
- SH2 binding enrichment [3]: 0.798
- phosphorylation enrichment [4]: 0.599
- phosphorylation enrichment [5]: 0.437
- phosphorylation enrichment [6]: 0.889
- phosphorylation enrichment [7]: 0.66
- phosphorylation enrichment [8]: 0.414
- phosphorylation enrichment [9]: 0.467
- phosphorylation enrichment [10]: 0.436
- phosphorylation enrichment [11]: 0.475
- phosphorylation enrichment [12]: 0.419
- phosphorylation enrichment [13]: 0.624
- phosphorylation enrichment [14]: 0.526
- phosphorylation enrichment [15]: 0.922
- phosphorylation enrichment [16]: 0.475

Sequence: TDHLRYFDSNK [ARAP1_Y359]
- SH2 binding enrichment [1]: 0.507
- SH2 binding enrichment [2]: 0.714
- SH2 binding enrichment [3]: 0.968
- phosphorylation enrichment [4]: 0.573
- phosphorylation enrichment [5]: 0.414
- phosphorylation enrichment [6]: 1.04
- phosphorylation enrichment [7]: 0.665
- phosphorylation enrichment [8]: 0.466
- phosphorylation enrichment [9]: 0.451
- phosphorylation enrichment [10]: 0.456
- phosphorylation enrichment [11]: 0.428
- phosphorylation enrichment [12]: 0.41
- phosphorylation enrichment [13]: 1.14
- phosphorylation enrichment [14]: 0.611
- phosphorylation enrichment [15]: 0.794
- phosphorylation enrichment [16]: 0.442

Sequence: NTVLGYFIGCI [GARS1_Y408_R412C]
- SH2 binding enrichment [1]: 0.438
- SH2 binding enrichment [2]: 0.514
- SH2 binding enrichment [3]: 0.906
- phosphorylation enrichment [4]: 0.828
- phosphorylation enrichment [5]: 0.457
- phosphorylation enrichment [6]: 1.19
- phosphorylation enrichment [7]: 1.18
- phosphorylation enrichment [8]: 0.381
- phosphorylation enrichment [9]: 0.467
- phosphorylation enrichment [10]: 0.598
- phosphorylation enrichment [11]: 0.491
- phosphorylation enrichment [12]: 0.465
- phosphorylation enrichment [13]: 0.826
- phosphorylation enrichment [14]: 0.653
- phosphorylation enrichment [15]: 1.31
- phosphorylation enrichment [16]: 0.63

The next lines start with results.

- SH2 binding enrichment [1]: 0.463
- SH2 binding enrichment [2]: 0.91
- SH2 binding enrichment [3]: 0.573
Sequence: AYRRGYFDEEM [PLEC_Y2971]
- phosphorylation enrichment [4]: 0.5
- phosphorylation enrichment [5]: 0.477
- phosphorylation enrichment [6]: 1.13
- phosphorylation enrichment [7]: 0.849
- phosphorylation enrichment [8]: 0.412
- phosphorylation enrichment [9]: 0.397
- phosphorylation enrichment [10]: 0.389
- phosphorylation enrichment [11]: 0.442
- phosphorylation enrichment [12]: 0.371
- phosphorylation enrichment [13]: 0.54
- phosphorylation enrichment [14]: 0.469
- phosphorylation enrichment [15]: 0.906
- phosphorylation enrichment [16]: 0.377

- SH2 binding enrichment [1]: 0.535
- SH2 binding enrichment [2]: 0.637
- SH2 binding enrichment [3]: 0.725
Sequence: SDYSSYARTSI [TERT_Y949]
- phosphorylation enrichment [4]: 0.7
- phosphorylation enrichment [5]: 0.553
- phosphorylation enrichment [6]: 0.792
- phosphorylation enrichment [7]: 0.725
- phosphorylation enrichment [8]: 0.52
- phosphorylation enrichment [9]: 0.862
- phosphorylation enrichment [10]: 0.542
- phosphorylation enrichment [11]: 0.845
- phosphorylation enrichment [12]: 0.897
- phosphorylation enrichment [13]: 0.639
- phosphorylation enrichment [14]: 1.63
- phosphorylation enrichment [15]: 0.558
- phosphorylation enrichment [16]: 2.84

- SH2 binding enrichment [1]: 0.72
- SH2 binding enrichment [2]: 1.22
- SH2 binding enrichment [3]: 1.24
Sequence: MTYVFYRENLR [NLRP14_Y443]
- phosphorylation enrichment [4]: 0.967
- phosphorylation enrichment [5]: 0.653
- phosphorylation enrichment [6]: 1.64
- phosphorylation enrichment [7]: 1.48
- phosphorylation enrichment [8]: 0.514
- phosphorylation enrichment [9]: 1.03
- phosphorylation enrichment [10]: 0.521
- phosphorylation enrichment [11]: 0.823
- phosphorylation enrichment [12]: 1.36
- phosphorylation enrichment [13]: 0.791
- phosphorylation enrichment [14]: 1.03
- phosphorylation enrichment [15]: 1.4
- phosphorylation enrichment [16]: 0.741

- SH2 binding enrichment [1]: 0.69
- SH2 binding enrichment [2]: 0.758
- SH2 binding enrichment [3]: 0.916
Sequence: EQQRAYLEGTC [HLA-C_Y183_L180Q]
- phosphorylation enrichment [4]: 0.602
- phosphorylation enrichment [5]: 0.599
- phosphorylation enrichment [6]: 0.939
- phosphorylation enrichment [7]: 0.93
- phosphorylation enrichment [8]: 0.521
- phosphorylation enrichment [9]: 0.556
- phosphorylation enrichment [10]: 0.455
- phosphorylation enrichment [11]: 0.518
- phosphorylation enrichment [12]: 0.531
- phosphorylation enrichment [13]: 0.834
- phosphorylation enrichment [14]: 0.647
- phosphorylation enrichment [15]: 1.03
- phosphorylation enrichment [16]: 0.555

- SH2 binding enrichment [1]: 0.5
- SH2 binding enrichment [2]: 0.799
- SH2 binding enrichment [3]: 0.999
Sequence: KLQQWYREPRS [GPI_Y17_H20P]
- phosphorylation enrichment [4]: 0.491
- phosphorylation enrichment [5]: 0.36
- phosphorylation enrichment [6]: 0.85
- phosphorylation enrichment [7]: 0.562
- phosphorylation enrichment [8]: 0.463
- phosphorylation enrichment [9]: 0.493
- phosphorylation enrichment [10]: 0.385
- phosphorylation enrichment [11]: 0.446
- phosphorylation enrichment [12]: 0.507
- phosphorylation enrichment [13]: 0.615
- phosphorylation enrichment [14]: 0.44
- phosphorylation enrichment [15]: 0.708
- phosphorylation enrichment [16]: 0.712

- SH2 binding enrichment [1]: 0.599
- SH2 binding enrichment [2]: 0.713
- SH2 binding enrichment [3]: 1.06
Sequence: PPSGEYFGHCG [TRIP6_Y275_Q278H]
- phosphorylation enrichment [4]: 1.18
- phosphorylation enrichment [5]: 0.698
- phosphorylation enrichment [6]: 1.69
- phosphorylation enrichment [7]: 0.999
- phosphorylation enrichment [8]: 0.529
- phosphorylation enrichment [9]: 0.983
- phosphorylation enrichment [10]: 0.668
- phosphorylation enrichment [11]: 0.698
- phosphorylation enrichment [12]: 0.509
- phosphorylation enrichment [13]: 0.904
- phosphorylation enrichment [14]: 0.85
- phosphorylation enrichment [15]: 1.38
- phosphorylation enrichment [16]: 1.02

- SH2 binding enrichment [1]: 0.412
- SH2 binding enrichment [2]: 0.429
- SH2 binding enrichment [3]: 0.82
Sequence: EGTATYAAAIL [JUP_Y644_V648I]
- phosphorylation enrichment [4]: 0.586
- phosphorylation enrichment [5]: 0.476
- phosphorylation enrichment [6]: 0.857
- phosphorylation enrichment [7]: 0.795
- phosphorylation enrichment [8]: 0.534
- phosphorylation enrichment [9]: 1.21
- phosphorylation enrichment [10]: 1.57
- phosphorylation enrichment [11]: 1.25
- phosphorylation enrichment [12]: 1.25
- phosphorylation enrichment [13]: 0.976
- phosphorylation enrichment [14]: 0.884
- phosphorylation enrichment [15]: 0.872
- phosphorylation enrichment [16]: 1.76

- SH2 binding enrichment [1]: 2.06
- SH2 binding enrichment [2]: 0.953
- SH2 binding enrichment [3]: 1.01
Sequence: FNNPAYFVLEG [INPPL1_Y986_YF]
- phosphorylation enrichment [4]: 5.18
- phosphorylation enrichment [5]: 7.65
- phosphorylation enrichment [6]: 1.25
- phosphorylation enrichment [7]: 4.57
- phosphorylation enrichment [8]: 3.7
- phosphorylation enrichment [9]: 0.578
- phosphorylation enrichment [10]: 0.501
- phosphorylation enrichment [11]: 0.679
- phosphorylation enrichment [12]: 0.875
- phosphorylation enrichment [13]: 0.816
- phosphorylation enrichment [14]: 0.621
- phosphorylation enrichment [15]: 1.09
- phosphorylation enrichment [16]: 0.588

- SH2 binding enrichment [1]: 0.576
- SH2 binding enrichment [2]: 0.619
- SH2 binding enrichment [3]: 1.04
Sequence: ISSLLYELLEE [TRPC6_Y896_R895L]
- phosphorylation enrichment [4]: 1.35
- phosphorylation enrichment [5]: 0.953
- phosphorylation enrichment [6]: 1.94
- phosphorylation enrichment [7]: 1.21
- phosphorylation enrichment [8]: 6.1
- phosphorylation enrichment [9]: 3.25
- phosphorylation enrichment [10]: 7.37
- phosphorylation enrichment [11]: 2.14
- phosphorylation enrichment [12]: 3.33
- phosphorylation enrichment [13]: 1.31
- phosphorylation enrichment [14]: 7.24
- phosphorylation enrichment [15]: 1.94
- phosphorylation enrichment [16]: 4.5
